# Results as given in US20110212108A1, “NEUREGULIN/ERBB SIGNALING AND INTEGRIN” (THE REGENTS OF THE UNIVERSITY OF CALIFORNIA, priority 2008, published 2011).
# Positions count from the first letter of the chain named. “Also recorded” adds a separate entry of the source. Where two headings read alike, the source gives them in different places.
# B1: WT NRG1α (175-241): wild type human neuregulin 1 fragment, residues 175-241 of SEQ ID NO:4 (SEQ ID NO:5), entire EGF-like motif and α domain (protein)
# chain: GTSHLVKCAEKEKTFCVNGGECFMVKDLSNPSRYLCKCQPGFTGARCTENVPMKVQNQEKAEELYQK
# modifications: integrin-binding site within human neuregulin, residues 175-241of human neuregulin 1alpha, long version
# B2: 3KE (175-241): NRG1α (175-241) with Lys181/Lys185/Lys187 mutated to Glu, SEQ ID NO:6 (3KE, long version) (protein)
# chain: B1 chain with K7E, K11E, K13E
# modifications: integrin-binding site within human neuregulin, residues 175-241of human neuregulin 1alpha, long version, 3KE mutant
# How the values were obtained:
# CHO cells = test: ERK1/2 activation in CHO cells, Western blotting; assay type: cell-based, Chinese hamster; details: serum-starved
# Description: FIG. 14. […] ErbB4 was stably expressed in CHO cells (designated ErbB4-CHO cells). ErbB4 was detected in a cell lysate of ErbB4-CHO cells by western blotting (top). Serum-starved CHO or ErbB4-CHO cells were stimulated with wt NRG1 (175-222) or the 3KE (175-222) mutant and ERK1/2 activation was measured by Western blotting.
# CHO cells express endogenous ErbB2 and ErbB3, but no ErbB4. CHO cells that express ErbB4 were generated by transfecting ErbB4 expression vector (designated ErbB4-CHO). […] It is therefore believed that the direct binding of integrin […] the Ras-MAP kinase pathway in ErbB4-CHO cells.
# [1] = molecular target: T1, CHO cells expressing β1-3-1 (β1-3-1-CHO cells) (Homo sapiens, UniProt P05556, DEL209-212/INS207YDMKT); test: Cell adhesion assay, β1-3-1-CHO cells; assay type: cell-based
# T1 construct: expressed in transfected cells; host or cells: CHO
# T1 sequence (P05556 with tags, fused parts or gaps INS207YDMKT/DEL209-212): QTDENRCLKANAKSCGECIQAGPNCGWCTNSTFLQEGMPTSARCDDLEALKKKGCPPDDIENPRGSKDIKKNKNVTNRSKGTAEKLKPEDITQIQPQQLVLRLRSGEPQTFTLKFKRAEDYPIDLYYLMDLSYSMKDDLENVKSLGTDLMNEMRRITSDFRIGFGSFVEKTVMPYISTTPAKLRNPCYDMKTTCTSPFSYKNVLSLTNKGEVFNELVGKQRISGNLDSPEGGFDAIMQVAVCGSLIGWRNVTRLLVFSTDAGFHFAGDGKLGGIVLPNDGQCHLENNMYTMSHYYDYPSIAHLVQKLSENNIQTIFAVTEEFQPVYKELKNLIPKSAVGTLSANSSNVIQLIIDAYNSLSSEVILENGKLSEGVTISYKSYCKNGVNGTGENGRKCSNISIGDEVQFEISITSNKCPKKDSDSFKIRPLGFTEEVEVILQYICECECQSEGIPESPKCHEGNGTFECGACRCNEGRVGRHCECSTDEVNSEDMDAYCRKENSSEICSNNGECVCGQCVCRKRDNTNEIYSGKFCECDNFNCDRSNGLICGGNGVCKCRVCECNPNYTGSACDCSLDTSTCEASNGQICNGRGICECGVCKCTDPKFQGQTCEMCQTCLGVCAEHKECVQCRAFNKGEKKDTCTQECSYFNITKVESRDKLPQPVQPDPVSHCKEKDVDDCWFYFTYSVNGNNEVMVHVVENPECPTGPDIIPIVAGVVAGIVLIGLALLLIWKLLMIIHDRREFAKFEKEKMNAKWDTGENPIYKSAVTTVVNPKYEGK
# Description: FIG. 3. Adhesion of CHO cells that express human β1 (β1-CHO) or β1-3-1 (β1-3-1-CHO) to wt NRG1 (175-222). The β1-3-1 mutation changes the specificity of β1 integrins to that of β3 integrins. Cell adhesion was performed as described herein. β1-3-1-CHO cells adhered to wt NRG1 (175-222) and this binding was blocked by anti-human β1 antibody AIIB2, but not by purified mouse IgG (mIgG). BSA: BSA as a control was coated instead of NRG1 (175-222).
# FIG. 6. […] Adhesion assays was performed using β1-3-1-CHO cells as described herein. Data are shown as means+/−SEM of triplicate experiments.
# The β1-3-1 mutation: To determine if NRG1 (175-222) binds to αvβ3 like other known αvβ3 ligands (e.g., vitronectin and fibrinogen), a mutant of β1 having a ligand specificity of β3 (Takagi et al. 1997) was used. […] It was shown that when a disulfide-linked five-residue sequence of β1 I-like domain (residues 177-183) of αvβ1 is switched with a corresponding sequence in β3 integrin (designated the β1-3-1 mutant), ligand-binding specificity of the mutated integrin αvβ1-3-1 is altered to that of αvβ3 (Takagi et al. 1997). […] The adhesion of β1-3-1-CHO cells to NRG1 (175-222) was blocked anti-β1 antibody AIIB2 (FIG. 3). […] These findings indicate that NRG1 (175-222) binds to the ligand-binding site of αvβ3, and that the specificity loop plays a role in NRG1 binding to αvβ3.
# (§1) Cell adhesion and soluble integrin binding assays were performed as described previously (Mori, et al., 2008). NRG1α (175-241) was immobilized to wells of 96-well microtiter plate overnight at 4° C. in 0.1 M carbonate buffer, pH 2 9.4. Remaining protein binding sites were blocked by incubating with 200 μl of 0.1% BSA in PBS for 60 min at room temperature. Wells were then incubated with soluble integrin αvβ3 in 50 μl in Hepes-Tyrode's buffer supplemented with 1 mM Mn2+ at room temperature for 60 min. After rinsing the wells with the same buffer, bound integrins were determined by horseradish peroxidase (HRP)-conjugated anti-His tag mouse IgG and substrate 3,3′,5,5′-tetramethylbenzidine of HRP.
# [2] = molecular target: T2, K562 cells that express human αvβ3 (αvβ3-K562) (Homo sapiens, UniProt P05106+P06756); test: Cell adhesion assay, αvβ3-K562 cells; assay type: cell-based
# T2 construct: expressed in transfected cells; host or cells: K562
# T2 sequence (P06756 31-1048): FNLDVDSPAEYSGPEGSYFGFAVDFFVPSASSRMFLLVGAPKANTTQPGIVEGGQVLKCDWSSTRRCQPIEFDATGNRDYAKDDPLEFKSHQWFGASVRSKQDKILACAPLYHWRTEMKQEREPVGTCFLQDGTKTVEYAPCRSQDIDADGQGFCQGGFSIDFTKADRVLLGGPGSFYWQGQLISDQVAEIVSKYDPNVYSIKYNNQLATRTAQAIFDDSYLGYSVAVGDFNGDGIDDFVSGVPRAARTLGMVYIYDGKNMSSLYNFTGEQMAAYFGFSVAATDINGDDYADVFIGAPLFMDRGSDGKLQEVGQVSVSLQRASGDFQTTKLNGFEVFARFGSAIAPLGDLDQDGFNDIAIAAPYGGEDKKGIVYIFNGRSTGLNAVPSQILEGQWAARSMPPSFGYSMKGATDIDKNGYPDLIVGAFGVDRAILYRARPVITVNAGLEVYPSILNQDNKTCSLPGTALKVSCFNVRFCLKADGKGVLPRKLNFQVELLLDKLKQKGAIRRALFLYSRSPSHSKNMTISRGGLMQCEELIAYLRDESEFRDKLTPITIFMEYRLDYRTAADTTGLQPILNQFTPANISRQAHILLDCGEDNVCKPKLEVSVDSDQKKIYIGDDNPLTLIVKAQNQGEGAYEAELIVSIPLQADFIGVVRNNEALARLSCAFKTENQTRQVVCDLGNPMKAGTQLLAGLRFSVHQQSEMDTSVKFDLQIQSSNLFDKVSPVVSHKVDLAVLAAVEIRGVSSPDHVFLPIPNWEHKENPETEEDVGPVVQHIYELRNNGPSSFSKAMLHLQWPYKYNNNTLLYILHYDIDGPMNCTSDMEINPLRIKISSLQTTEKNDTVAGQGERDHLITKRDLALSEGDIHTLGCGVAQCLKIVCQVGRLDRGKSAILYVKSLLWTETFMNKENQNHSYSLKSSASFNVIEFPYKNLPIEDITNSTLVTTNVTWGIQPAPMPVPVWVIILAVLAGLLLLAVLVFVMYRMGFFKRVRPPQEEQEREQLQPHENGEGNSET
# T2 sequence (P05106 27-788): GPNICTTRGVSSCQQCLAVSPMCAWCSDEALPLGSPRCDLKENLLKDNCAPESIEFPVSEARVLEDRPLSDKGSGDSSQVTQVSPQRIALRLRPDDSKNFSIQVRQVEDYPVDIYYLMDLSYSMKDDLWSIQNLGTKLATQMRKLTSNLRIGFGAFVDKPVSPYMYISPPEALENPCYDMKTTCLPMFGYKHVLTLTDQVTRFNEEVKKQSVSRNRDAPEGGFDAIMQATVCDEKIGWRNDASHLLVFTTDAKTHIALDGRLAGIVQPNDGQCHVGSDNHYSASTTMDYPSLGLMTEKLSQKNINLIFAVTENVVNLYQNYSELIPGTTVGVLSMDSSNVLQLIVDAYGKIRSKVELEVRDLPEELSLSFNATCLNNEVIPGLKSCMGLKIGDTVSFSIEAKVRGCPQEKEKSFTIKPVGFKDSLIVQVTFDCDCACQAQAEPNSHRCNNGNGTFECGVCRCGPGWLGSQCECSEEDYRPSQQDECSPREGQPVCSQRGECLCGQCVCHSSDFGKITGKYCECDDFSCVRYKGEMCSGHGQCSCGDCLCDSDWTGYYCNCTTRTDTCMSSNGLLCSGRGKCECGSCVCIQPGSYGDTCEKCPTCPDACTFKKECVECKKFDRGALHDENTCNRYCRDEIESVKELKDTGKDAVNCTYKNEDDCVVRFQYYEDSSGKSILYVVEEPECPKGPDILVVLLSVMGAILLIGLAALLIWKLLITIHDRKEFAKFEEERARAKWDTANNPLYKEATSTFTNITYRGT
# Description: FIG. 5. […] Adhesion assays was performed using αvβ3-K562 (left) or mock transfected cells (right) as described herein. The data is shown as means+/−SEM of triplicate experiments.
# CHO or K562 cells expressing different recombinant integrins were previously known and available (Zhang et al. 1998; Tarui et al. 2006). Labeling of proteins with FITC or […] was performed according to manufacturers' instructions. Flow cytometry was performed as described above. Also, adhesion assays as described above were used to confirm the findings using flow cytometry.
# as §1
# integrin αvβ3 = molecular target: T3, integrin αvβ3 (Homo sapiens, UniProt P05106+P06756); test: ELISA-type binding of soluble recombinant integrin αvβ3 to immobilized NRG1 fragments; details: soluble αvβ3, 1 mM Mn2+, room temperature
# T3 construct: Soluble recombinant integrin αvβ3 (5 μg/ml) was added to the wells; made in house
# T3 sequence (P06756 31-992 limits assumed): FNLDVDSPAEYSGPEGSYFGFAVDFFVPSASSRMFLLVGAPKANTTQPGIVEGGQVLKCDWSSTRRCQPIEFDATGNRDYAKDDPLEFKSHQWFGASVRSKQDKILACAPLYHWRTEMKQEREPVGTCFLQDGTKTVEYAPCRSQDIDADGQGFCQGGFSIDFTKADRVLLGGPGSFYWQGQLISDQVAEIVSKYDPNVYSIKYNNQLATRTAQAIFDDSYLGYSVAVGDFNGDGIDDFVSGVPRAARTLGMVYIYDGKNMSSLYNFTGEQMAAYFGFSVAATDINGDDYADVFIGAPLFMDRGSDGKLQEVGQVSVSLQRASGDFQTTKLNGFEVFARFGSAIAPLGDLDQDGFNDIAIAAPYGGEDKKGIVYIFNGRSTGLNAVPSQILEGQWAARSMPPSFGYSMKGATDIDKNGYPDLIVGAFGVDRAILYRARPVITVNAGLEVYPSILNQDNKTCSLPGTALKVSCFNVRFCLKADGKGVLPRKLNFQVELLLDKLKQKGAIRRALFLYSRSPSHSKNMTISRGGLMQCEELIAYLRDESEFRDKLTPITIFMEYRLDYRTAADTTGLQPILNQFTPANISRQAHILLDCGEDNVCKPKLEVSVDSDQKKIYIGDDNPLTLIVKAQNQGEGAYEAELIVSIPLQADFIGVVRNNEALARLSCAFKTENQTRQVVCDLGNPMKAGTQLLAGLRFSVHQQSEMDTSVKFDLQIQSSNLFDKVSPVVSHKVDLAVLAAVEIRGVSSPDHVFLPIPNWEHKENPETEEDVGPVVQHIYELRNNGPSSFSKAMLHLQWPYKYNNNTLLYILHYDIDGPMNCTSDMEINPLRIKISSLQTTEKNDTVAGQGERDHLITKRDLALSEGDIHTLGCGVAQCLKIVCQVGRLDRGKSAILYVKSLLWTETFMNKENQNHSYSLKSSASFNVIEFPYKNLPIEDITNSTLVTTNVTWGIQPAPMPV
# T3 sequence (P05106 27-718 limits assumed): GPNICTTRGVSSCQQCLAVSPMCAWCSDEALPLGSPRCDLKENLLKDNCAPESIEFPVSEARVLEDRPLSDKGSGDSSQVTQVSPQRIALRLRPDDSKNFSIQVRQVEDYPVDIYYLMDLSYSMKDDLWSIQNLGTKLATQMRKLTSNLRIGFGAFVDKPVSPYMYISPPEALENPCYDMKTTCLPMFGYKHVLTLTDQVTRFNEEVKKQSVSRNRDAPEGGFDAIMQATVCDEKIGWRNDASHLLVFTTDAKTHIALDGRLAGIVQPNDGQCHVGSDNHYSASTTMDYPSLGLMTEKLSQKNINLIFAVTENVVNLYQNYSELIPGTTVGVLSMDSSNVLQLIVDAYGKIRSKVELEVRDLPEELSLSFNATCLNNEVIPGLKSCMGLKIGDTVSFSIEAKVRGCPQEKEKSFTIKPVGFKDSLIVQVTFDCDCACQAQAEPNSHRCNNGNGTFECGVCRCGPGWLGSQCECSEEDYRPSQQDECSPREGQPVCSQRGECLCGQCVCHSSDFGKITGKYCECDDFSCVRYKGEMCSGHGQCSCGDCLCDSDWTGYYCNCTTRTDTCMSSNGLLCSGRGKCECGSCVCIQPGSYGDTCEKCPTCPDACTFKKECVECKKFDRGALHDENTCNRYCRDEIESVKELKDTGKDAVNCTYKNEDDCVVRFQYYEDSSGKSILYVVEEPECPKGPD
# Description: FIG. 1. […] The isolated EGF-like domain of Wt NRG1 was immobilized to wells of 96-well titer plates. The concentrations of the coating solution are shown. Soluble recombinant integrin αvβ3 (5 μg/ml) was added to the wells in the presence of 1 mM Mn^2+ and incubated for 2 h at room temperature. After washing the wells bound αvβ3 was determined by using anti-β3 antibody and HRP-conjugated anti-mouse IgG. The data is shown as means+/−SEM of triplicate experiments. FIG. 7. […] Wt GST-NRG1 (175-222) and the 2KE mutant of GST-NRG1 (175-222) were immobilized to wells of 96-well titer plates. The concentrations of the coating solution are shown. Soluble recombinant integrin αvβ3 (5 μg/ml) was added to the wells in the presence of 1 mM Mn^2+ and incubated for 2 h at room temperature. After washing, the wells bound αvβ3 was determined by using anti-β3 antibody and HRP-conjugated anti-mouse IgG. The data are shown as means+/−SD of triplicate experiments. […] Direct αvβ3-NRG (175-222) interaction: It has been well established that the EGF-like domain of the NRGs is sufficient to specifically activate ErbB receptors and to induce cellular responses in culture. To generate GST-NRG1 EGF-like domain fusion protein, the cDNA fragment of the EGF-like domain of NRG1 was amplified by PCR and subcloned into PGEX-2T vector to generate GST-NRG1 EGF-like domain fusion protein (designated GST-NRG1 (175-222)) in E. coli BL21. The fusion protein was purified in glutathione-affinity chromatography. The affinity resin was extensively washed with 1% Triton X-114 to remove endotoxin before eluting the protein. It was tested, in the present invention, whether soluble recombinant integrin αvβ3 binds to GST-NRG1 (175-222) that is immobilized to plastic wells (ELISA-type assay). […] Cell adhesion and soluble integrin binding assays were performed as described previously (Mori, et al., 2008). NRG1α (175-241) was immobilized to wells of 96-well microtiter plate overnight at 4° C. in 0.1 M carbonate buffer, pH 2 9.4. Remaining protein binding sites were blocked by incubating with 200 μl of 0.1% BSA in PBS for 60 min at room temperature. Wells were then incubated with soluble integrin αvβ3 in 50 μl in Hepes-Tyrode's buffer supplemented with 1 mM Mn2+ at room temperature for 60 min. After rinsing the wells with the same buffer, bound integrins were determined by horseradish peroxidase (HRP)-conjugated anti-His tag mouse IgG and substrate 3,3′,5,5′-tetramethylbenzidine of HRP.
Molecule,ERK1/2 activation in (mock-transfected) CHO cells (CHO cells),ERK1/2 activation in (mock-transfected) CHO cells (CHO cells; listed as 3KE (175-222)),Adhesion of β1-3-1-CHO cells to the immobilized protein [1],Adhesion of αvβ3-K562 cells to the immobilized protein [2],Binding of soluble recombinant integrin αvβ3 to the immobilized protein (integrin αvβ3),Adhesion of αvβ3-K562 cells to the immobilized protein ([2]; listed as NRG1 (175-222)),Binding of soluble recombinant integrin αvβ3 to the immobilized protein (integrin αvβ3; listed as NRG (175-222)),Adhesion of β1-3-1-CHO cells to the immobilized protein ([1]; listed as NRG1α (175-241)),Adhesion of β1-3-1-CHO cells to the immobilized protein ([1]; listed as wt NRG1α (175-241)),Adhesion of αvβ3-K562 cells to the immobilized protein ([2]; listed as NRG1α (175-241)),Adhesion of αvβ3-K562 cells to the immobilized protein ([2]; listed as wt NRG1α (175-241))
"3KE (175-222): NRG1 (175-222) with Lys181/Lys185/Lys187 mutated to Glu; GTSHLVECAEEEETFCVNGGECFMVKDLSNPSRYLCKCQPGFTGARCT (SEQ ID NO:11) (integrin-binding site within human neuregulin, 3KE mutant, short version)",suppressed,suppressed ERK1/2 activation,defective in binding to β1-3-1 integrins,did not bind; also recorded: defective in binding to αvβ3-K562 cells,bound to the 3KE (175-222) mutant (isolated EGF-like domain) in a dose-dependent manner; also recorded: much lower affinity to αvβ3,,,,,,
"wt NRG1 (175-222): wild type human neuregulin 1 fragment, EGF-like domain, residues 175-222 of SEQ ID NO:4 (SEQ ID NO:3) (GTSHLVKCAEKEKTFCVNGGECFMVKDLSNPSRYLCKCQPGFTGARCT; integrin-binding site within human neuregulin 1 EGF-like region and portion of alpha domain, residues 175-222 of human neuregulin 1 alpha) [reference compound]",enhanced ERK1/2 activation,,bound to NRG1 (175-222),bound to wt NRG1 (175-222),,adhered in a dose-dependent manner,bound to recombinant soluble αvβ3,,,,
B1,,,,,bound to GST-NRG1α (175-241) (isolated EGF-like domain) in a dose-dependent manner,,,bound to NRG1α (175-241),bound to wt NRG1α (175-241),adhered in a dose-dependent manner,bound to wt NRG1α (175-241)
B2,,,little or no adhesion,little or no adhesion,,,,,,,
